Experimental findings from patent US20260008839A1 (BRIGHAM AND WOMEN S HOSPITAL, published 2026) are described below.

The target of experiment [1] is Dll4. Description: flow cytometry: recombinant NOTCH1-Fc + PE anti-IgG Fc on DLL4-expressing HEK293T cells pre-treated with control IgG; gate PE+.
In experiment [2] the target is Dll4. Description: flow cytometry: recombinant NOTCH1-Fc + PE anti-IgG Fc on DLL4-expressing Cf2Th cells pre-treated with control IgG.
Experiment [3] addresses Dll4. As to the kind of experiment: flow cytometry: recombinant NOTCH1-Fc + PE anti-IgG Fc on DLL4-expressing Cf2Th cells pre-treated with control IgG; gate PE+.
Experiment [4] deals with T1, human DLL4 (human, UniProt Q9NR61 27-529, limits assumed).
T1 construct: also called Hu.DLL4; HuDLL4
T1 sequence (Q9NR61 27-529 limits assumed): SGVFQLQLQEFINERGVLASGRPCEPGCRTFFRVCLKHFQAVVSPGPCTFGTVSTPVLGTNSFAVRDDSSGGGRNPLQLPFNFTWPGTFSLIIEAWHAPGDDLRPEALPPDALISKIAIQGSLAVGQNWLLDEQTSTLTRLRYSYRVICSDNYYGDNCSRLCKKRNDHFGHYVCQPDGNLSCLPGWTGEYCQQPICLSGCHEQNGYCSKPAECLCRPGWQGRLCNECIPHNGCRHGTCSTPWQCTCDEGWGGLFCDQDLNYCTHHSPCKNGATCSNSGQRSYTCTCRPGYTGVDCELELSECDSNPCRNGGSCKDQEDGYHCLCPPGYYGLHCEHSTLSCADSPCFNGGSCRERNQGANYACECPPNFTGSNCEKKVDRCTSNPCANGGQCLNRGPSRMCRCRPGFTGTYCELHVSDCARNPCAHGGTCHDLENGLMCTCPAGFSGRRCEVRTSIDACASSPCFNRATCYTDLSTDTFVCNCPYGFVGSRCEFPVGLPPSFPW
Description: SPR Biacore 3000, antibody captured on anti-rat Fc (140 RU), full kinetics, analyte 0-12.5 nM. As to the method:
(§1) Binding experiments were performed on Biacore 3000 at 25° C. Flow cell 2, 3 and 4 of the CM5 chip were coated with the goat anti-rat Fc Capture Ab using EDC/NHS the amine coupling method as per GE manufacturer's instruction. The unoccupied sites were blocked with 1M ethanolamine. Three test antibodies were captured at an RU as indicated on flow cell 2, 3 and 4. Ag was flowed over the chip. Binding of antigen to the antibodies was monitored in real time. From the observed kₒₙ and koff, KD was determined. For the interactions with fast off rate, steady state kinetics was used to determine KD.

For experiment [5], the target named is T2, human DLL1 (human, UniProt O00548 18-545, limits assumed).
T2 construct: Construct not described; also called Hu.DLL1
T2 sequence (looked up): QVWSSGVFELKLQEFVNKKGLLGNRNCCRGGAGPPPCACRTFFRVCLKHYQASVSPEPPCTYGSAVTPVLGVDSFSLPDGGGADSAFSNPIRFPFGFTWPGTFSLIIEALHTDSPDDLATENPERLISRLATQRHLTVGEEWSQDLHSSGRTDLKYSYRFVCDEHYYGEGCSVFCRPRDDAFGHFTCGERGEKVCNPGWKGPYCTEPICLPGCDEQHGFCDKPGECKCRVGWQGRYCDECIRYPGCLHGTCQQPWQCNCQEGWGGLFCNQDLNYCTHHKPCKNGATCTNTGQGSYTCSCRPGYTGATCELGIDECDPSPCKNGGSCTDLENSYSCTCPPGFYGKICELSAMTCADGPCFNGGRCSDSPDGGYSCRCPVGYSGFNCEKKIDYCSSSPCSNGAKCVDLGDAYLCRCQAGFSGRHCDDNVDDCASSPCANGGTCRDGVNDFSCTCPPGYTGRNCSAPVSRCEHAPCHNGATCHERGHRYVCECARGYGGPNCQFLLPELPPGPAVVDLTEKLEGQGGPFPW
Description: SPR Biacore 3000, antibody captured on anti-rat Fc (220 RU), scouting. As to the method: as §1
(§2) Scouting analysis was performed using a single analyte concentration of 100 nM. At this concentration, binding should be observed even if the ligand binding affinity is weak. Flow cell 1 response was used for reference subtraction.

The target in experiment [6] is T1, human DLL4. As to the kind of experiment: SPR Biacore 3000, antibody captured on anti-rat Fc (220 RU), scouting at 100 nM analyte. As to the method:
as §1, §2

Experiment [7] addresses T3, porcine DLL4 (porcine, UniProt A0A4X1URL1 27-529).
T3 construct: Construct not described (pig DLL4 ECD is named only for hybridoma screening); also called pig DLL4; porcine DDL4
As to the kind of experiment: SPR Biacore 3000, antibody captured on anti-rat Fc (110 RU), full kinetics, analyte 0-50 nM. As to the method: as §1

The target in experiment [8] is T3, porcine DLL4. As to the kind of experiment: SPR Biacore 3000, antibody captured on anti-rat Fc (80 RU), scouting at 20 nM and 100 nM analyte. How it is done:
as §1

Experiment [9] deals with T3, porcine DLL4. As to the kind of experiment: SPR Biacore 3000, antibody captured on anti-rat Fc (130 RU), full kinetics, analyte 0-200 nM. As to the method:
as §1

Experiment [10] deals with T3, porcine DLL4. As to the kind of experiment: SPR Biacore 3000, antibody captured on anti-rat Fc (75 RU), scouting at 20 nM and 100 nM analyte.
For experiment [11], the target named is T1, human DLL4. As to the kind of experiment: SPR Biacore 3000, antibody captured on anti-rat Fc (161 RU), scouting at 100 nM analyte. As to the method:
as §1, §2

Experiment [12] concerns the target T2, human DLL1. As to the kind of experiment: SPR Biacore 3000, antibody captured on anti-rat Fc (161 RU), scouting. How it is done:
as §1, §2

Experiment [13] deals with T1, human DLL4. As to the kind of experiment: SPR Biacore 3000, antibody captured on anti-rat Fc (170 RU), scouting at 100 nM analyte. How it is done:
as §1, §2

The target in experiment [14] is T1, human DLL4. Description: SPR Biacore 3000, full kinetics, against 8D2 as reference. How it is done: as §1
Experiment [15] addresses T1, human DLL4. As to the kind of experiment: head of the antibody's table; summary bound, assay and unit not named there.
In experiment [16] the target is T1, human DLL4. As to the kind of experiment: SPR Biacore 3000, antibody captured on anti-rat Fc (90 RU), full kinetics, analyte 0-25 nM. How it is done: as §1
In experiment [17] the target is T3, porcine DLL4. As to the kind of experiment: SPR Biacore 3000, antibody captured on anti-rat Fc (80 RU), full kinetics, analyte 0-50 nM. How it is done: as §1
For experiment [18], the target named is T2, human DLL1. Description: head of the antibody's table; assay not named.

Dll4, sequence (chain, as listed by the source limits assumed): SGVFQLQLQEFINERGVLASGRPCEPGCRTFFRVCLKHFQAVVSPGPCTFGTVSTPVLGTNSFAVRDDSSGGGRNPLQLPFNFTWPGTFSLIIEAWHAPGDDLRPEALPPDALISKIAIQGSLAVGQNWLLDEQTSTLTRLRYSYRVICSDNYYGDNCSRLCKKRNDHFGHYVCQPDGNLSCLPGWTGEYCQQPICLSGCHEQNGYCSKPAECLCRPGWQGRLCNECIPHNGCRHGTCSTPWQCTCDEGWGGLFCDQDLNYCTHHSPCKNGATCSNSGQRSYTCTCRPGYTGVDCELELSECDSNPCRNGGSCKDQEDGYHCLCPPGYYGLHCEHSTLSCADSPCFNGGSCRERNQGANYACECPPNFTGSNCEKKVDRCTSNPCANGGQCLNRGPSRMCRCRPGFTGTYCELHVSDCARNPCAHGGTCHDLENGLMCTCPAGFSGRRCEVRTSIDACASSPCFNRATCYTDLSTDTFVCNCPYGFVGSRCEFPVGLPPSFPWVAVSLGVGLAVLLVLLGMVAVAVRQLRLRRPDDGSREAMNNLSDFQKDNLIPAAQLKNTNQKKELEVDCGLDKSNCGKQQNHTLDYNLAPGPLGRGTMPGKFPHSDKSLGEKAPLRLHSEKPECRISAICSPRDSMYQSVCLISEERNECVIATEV
T3 sequence (A0A4X1URL1 entry or part of it): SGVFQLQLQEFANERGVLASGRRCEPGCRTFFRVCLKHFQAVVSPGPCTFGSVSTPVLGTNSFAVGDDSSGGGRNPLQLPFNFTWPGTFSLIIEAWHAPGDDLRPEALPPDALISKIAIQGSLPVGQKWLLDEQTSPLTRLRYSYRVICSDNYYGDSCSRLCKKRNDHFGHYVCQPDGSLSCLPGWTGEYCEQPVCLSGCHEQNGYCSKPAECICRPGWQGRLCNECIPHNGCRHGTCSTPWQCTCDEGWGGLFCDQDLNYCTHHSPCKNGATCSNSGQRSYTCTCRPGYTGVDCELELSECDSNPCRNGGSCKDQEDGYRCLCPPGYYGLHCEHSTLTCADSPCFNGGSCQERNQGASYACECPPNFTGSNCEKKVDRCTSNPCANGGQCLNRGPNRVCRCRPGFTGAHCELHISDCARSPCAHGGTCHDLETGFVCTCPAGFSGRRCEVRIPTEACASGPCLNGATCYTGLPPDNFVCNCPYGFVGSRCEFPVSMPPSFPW

On to NOTCH1-Fc (Fc fusion), for which the PE positive cells (%) in the experiment with Dll4 [1] worked out at 9.6%; in the experiment with Dll4 [2], 16.8%; with Dll4 [3], 11%.

B1: Monoclonal Antibody 8D2 (antibody, V domains shown)
VH: SGGGLVQPGRSMKLSCAASGFTFSNYDMAWVRQDPKKGLEWVATISYDGRSTYYRDSVKGRFTISRDNAKSTLYLQMDSLRSEDTATYYCKDYDGHYHPYGMEAWGQGISVTVSS
VL: DIVLTQSPALAVTLGQRATISCRASQSVTISNYNLMQWYQQRPGRQPKLLIYDASNLASGIPARFSGSGSGTDFTLTIDPVQADDIATYYCQQSRDDPRTFGGGTKLELR
notes: Rat hybridoma monoclonal antibody, IgG type (captured by goat anti-rat Fc); also called BMH-8D2-D10; rat 8D2
Turning to B1, the Kd with human DLL4 [4] stood at 2.12 nM; with human DLL4 [6], 2.27 nM; in the experiment with porcine DLL4 [7], 7.21 nM; with porcine DLL4 [8], 9.95 nM. The koff is 0.00161 s⁻¹ with human DLL4 [4], 0.00108 s⁻¹ with human DLL4 [6], 0.00182 s⁻¹ in the experiment with porcine DLL4 [7] and 0.00171 s⁻¹ with porcine DLL4 [8]. Besides, the kon in the experiment with human DLL4 [4] was determined as 759000 M⁻¹ s⁻¹; with human DLL4 [6], 474000 M⁻¹ s⁻¹; with porcine DLL4 [7], 253000 M⁻¹ s⁻¹; with porcine DLL4 [8], 172000 M⁻¹ s⁻¹. Further, in the experiment with human DLL1 [5], the binding result was “no binding (tested: 100 nM)”.

B2: Monoclonal Antibody 2H10 (antibody, V domains shown)
VH: QVQVKESGPGLVQPSQTLSLTCIVSGFSLSSYHVSWVRQPPGKSLVWMGTIWAGGGTNYNSAVQSRLSISRDTSKSQVFLKVNSLQPEDTGTYYCARHYYDGYYHGPYFDYWGQGVMVTV
VL: SPASLSASLGETVTFECRASEDIYTNLAWYQQKPGNSPQLLIYDANTLADGVPSRFSGSGSGTQFSLKINSLQSEDVASYFCQQYDSYPWTFGGGTKLELRR
notes: Rat hybridoma monoclonal antibody, IgG type (captured by goat anti-rat Fc); also called BMH-2H10-A7
For B2, the Kd amounted to 9370 nM with porcine DLL4 [9], 1240 nM with porcine DLL4 [10] and 88.6 nM with human DLL4 [11]. For the same molecule, the koff was found to be 0.00276 s⁻¹ with porcine DLL4 [9], 0.00345 s⁻¹ with porcine DLL4 [10] and 0.00109 s⁻¹ with human DLL4 [11]. Further, the kon was determined as 295 M⁻¹ s⁻¹ with porcine DLL4 [9], 2790 M⁻¹ s⁻¹ with porcine DLL4 [10] and 12400 M⁻¹ s⁻¹ with human DLL4 [11]. In addition, the binding result with human DLL1 [12] is reported as “no binding (tested: 100 nM)”.

B3: Monoclonal Antibody 8C2 (antibody, V domains shown)
VH: QVQLKESGPGLVQPSQTLSLTCTVSGISISIYGVSWVRQPPGKGLEWMGGIWGDGSTDYNSALKSRLSLSRDTSKSQVFLKMNSLQTEDTAIYFCTLSGDFDYWGHGVLVTVSS
VL: DIQLTQSPASLSASLDEIVTITCQASLDIGNWLAWYQQKTGKSPQLLIYGATSLAGGVPSRFSGSRSGTQYSLKISKLQVEDTGIYYCLQHYRAPFTFGSGTKLEI
notes: Rat hybridoma monoclonal antibody, IgG type (captured by goat anti-rat Fc); also called BMH-8C2-D10; BMH-8C2-D4
With B3, the Kd worked out at 3.68 nM with human DLL4 [13], 0.343 nM in the experiment with human DLL4 [16], 7.07 nM in the experiment with porcine DLL4 [17] and 15.4 nM with porcine DLL4 [8]. Moreover, the koff with human DLL4 [13] is 0.000505 s⁻¹; with human DLL4 [16], 0.000439 s⁻¹; with porcine DLL4 [17], 0.00198 s⁻¹; with porcine DLL4 [8], 0.00162 s⁻¹. The kon was 137000 M⁻¹ s⁻¹ with human DLL4 [13]; greater than 500000 M⁻¹ s⁻¹ with human DLL4 [15]; 1.28e+06 M⁻¹ s⁻¹ with human DLL4 [16]; 281000 M⁻¹ s⁻¹ with porcine DLL4 [17]; 106000 M⁻¹ s⁻¹ in the experiment with porcine DLL4 [8]. In addition, the “fold higher affinity than 8D2” value with human DLL4 [14] was roughly 10 fold. Also, the “fold lower off rate than 8D2” value with human DLL4 [14] was 4 fold. In addition, the binding result with human DLL1 [18] is “no binding”.
